Assay results: the supplement of paper PMC7877785
± gives the uncertainty stated by the source.

Assay: self-splicing fitness, log relative to wild type (ln ratio); higher = more splicing; Tetrahymena group I intron in knt gene, E. coli kanamycin selection, DiMSum; sequences stand for … in CUCUCU…GGAGGGAAAAGUUAUCAGGCAUGCACCUGGUAGCUAGUCUUUAAACCAAUAGAUUGCAUCGGUUUAAAAGGCAAGACCGUCAAAUUGCGGGAAAGGGGUCAACAGCCGUUCAGUACCAAGUCUCAGGGGAAACUUUGAGAUGGCCUUGCAAAGGGUAUGGUAAUAAGCUGACGGACAUGGUCCUAACCACGCAGCCAAGUCCUAAGUCAACAGAUCUUCUGUUGAUAUGGAUGCAGUUCACAGACUAAAUGUCGGUCGGGGAAGAUGUAUUCUUCUCAUAAGAUAUAGUCGGACCUCUCCUUAAUGGGAGCUAGCGGAUGAAGUGAUGCAACACUGGAGCCGCUGGGAACUAAUUUGUAUGCGAAAGUAUAUUGAUUAGUUUUGGAGUACUCGUGGUCG
Procedure, shortened: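 Six replicate transformations of E. coli BL21(DE3) with a pET-22b(+) library were grown overnight at 37°C or 30°C. The library randomised all eight P1ex-region intron nucleotides, the intron lying in the knt kanamycin-resistance gene, and plates were LB agar with or without 25 μg/mL kanamycin plus 100 μg/mL carbenicillin, 50 μM IPTG and 0.2% rhamnose. Pooled colonies were amplicon-sequenced on an Illumina HiSeq 2500, and fitness is the DiMSum error-weighted combination of wild-type-normalised replicate fold changes, kanamycin versus none.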

| Sequence | self-splicing fitness (ln) (30 °C) | self-splicing fitness (ln) (37 °C) |
| --- | --- | --- |
| CCUGAGCAAUAUUACGCGGC | -3.57 ± 0.2 | -2.55 ± 0.22 |
| CCUGAGCAAUAUUACGCGGG | -3.41 ± 0.26 | -2.22 ± 0.34 |
| CCUGAGCAAUAUUACGCUAA | -3.04 ± 0.2 | -2.88 ± 0.25 |
| CCUGAGCAAUAUUACGCUUG | – | -1.23 ± 0.28 |
| CCUGAGCAAUAUUACGGAAA | -3.53 ± 0.35 | -1.92 ± 0.28 |
| CCUGAGCAAUAUUACGGCAG | -2.92 ± 0.34 | -0.802 ± 0.17 |
| CCUGAGCAAUAUUACGGCGA | -3.62 ± 0.46 | -2.62 ± 0.38 |
| CCUGAGCAAUAUUACGGGUA | -2.9 ± 0.27 | -2.07 ± 0.31 |
| CCUGAGCAAUAUUACGGGUG | -2.65 ± 0.12 | -1.81 ± 0.14 |
| CCUGAGCAAUAUUACGGUUC | -3.21 ± 0.23 | -3.06 ± 0.4 |
| CCUUAGCAAUAUUACGAAGU | -2.21 ± 0.15 | -1.93 ± 0.12 |
| CCUUAGCAAUAUUACGACUU | -3.8 ± 0.35 | -2.73 ± 0.32 |
| CCUUAGCAAUAUUACGAGAC | – | -1.83 ± 0.25 |
| CCUUAGCAAUAUUACGAGAU | -2.62 ± 0.26 | -2.79 ± 0.21 |
| CCUUAGCAAUAUUACGAGCC | -3.38 ± 0.34 | – |
| CCUUAGCAAUAUUACGAUUU | -4.25 ± 0.42 | -2.44 ± 0.35 |
| CCUUAGCAAUAUUACGCAAC | – | -2.04 ± 0.48 |
| CCUUAGCAAUAUUACGCAGU | -3.81 ± 0.23 | -2.32 ± 0.23 |
| CCUUAGCAAUAUUACGCAUG | -3.78 ± 0.19 | -2.14 ± 0.18 |
| CCUUAGCAAUAUUACGCCGU | -2.66 ± 0.22 | -2.18 ± 0.24 |
| CCUUAGCAAUAUUACGCCUC | – | -2.65 ± 0.41 |
| CCUUAGCAAUAUUACGCGGC | -2.89 ± 0.27 | -3.63 ± 0.42 |
| CCUUAGCAAUAUUACGCUUU | -3.64 ± 0.31 | -2.46 ± 0.22 |
| CCUUAGCAAUAUUACGGAAC | – | -2.73 ± 0.44 |
| CCUUAGCAAUAUUACGUCAC | -3.46 ± 0.26 | -2.21 ± 0.29 |

| Sequence | self-splicing fitness (ln) (30 °C) | self-splicing fitness (ln) (37 °C) |
| --- | --- | --- |
| CCUUAGCAAUAUUACGUCAU | -3.85 ± 0.21 | -2.96 ± 0.24 |
| CCUUAGCAAUAUUACGUGCU | -3.4 ± 0.18 | -2.83 ± 0.31 |
| CCUUAGCAAUAUUACGUGGC | -4.19 ± 0.31 | -2.88 ± 0.31 |
| CCUUAGCAAUAUUACGUGGG | -2.78 ± 0.16 | -2.35 ± 0.16 |
| CCUUAGCAAUAUUACGUUAU | -2.42 ± 0.14 | -2.45 ± 0.28 |
| CGAAAGCAAUAUUACGAAAA | -2.38 ± 0.29 | -1.32 ± 0.23 |
| CGAAAGCAAUAUUACGAAUG | -0.194 ± 0.057 | 0.263 ± 0.08 |
| CGAAAGCAAUAUUACGACGG | 0.0482 ± 0.089 | 0.569 ± 0.12 |
| CGAAAGCAAUAUUACGACUG | -0.103 ± 0.064 | -0.811 ± 0.078 |
| CGAAAGCAAUAUUACGAGCA | -2.3 ± 0.25 | -0.869 ± 0.24 |
| CGAAAGCAAUAUUACGAGCC | -2.18 ± 0.32 | -1.19 ± 0.3 |
| CGAAAGCAAUAUUACGAUCG | -3.41 ± 0.43 | -1.34 ± 0.29 |
| CGAAAGCAAUAUUACGCACU | -0.573 ± 0.11 | 0.0275 ± 0.13 |
| CGAAAGCAAUAUUACGCGAC | -2.36 ± 0.19 | -3.26 ± 0.25 |
| CGAAAGCAAUAUUACGCGAU | -2.86 ± 0.21 | -2.15 ± 0.34 |
| CGAAAGCAAUAUUACGCGGU | -2.88 ± 0.17 | -2.41 ± 0.18 |
| CGAAAGCAAUAUUACGCGUA | -2.68 ± 0.19 | -1.95 ± 0.18 |
| CGAAAGCAAUAUUACGCUGC | -3.68 ± 0.23 | -2.69 ± 0.19 |
| CGAAAGCAAUAUUACGGAUG | -0.462 ± 0.066 | -0.00232 ± 0.091 |
| CGAAAGCAAUAUUACGGCCG | -1.64 ± 0.14 | -0.462 ± 0.21 |
| CGAAAGCAAUAUUACGGGCG | -0.207 ± 0.098 | -0.157 ± 0.13 |
| CGAAAGCAAUAUUACGGUCU | -0.258 ± 0.071 | -0.209 ± 0.089 |
| CGAAAGCAAUAUUACGUAAG | -0.262 ± 0.049 | -0.000374 ± 0.07 |
| CGAAAGCAAUAUUACGUUGU | -3.63 ± 0.15 | -2.7 ± 0.15 |
| CGAAAGCAAUAUUACGUUUG | -2.33 ± 0.12 | -1.74 ± 0.14 |
